Laboratory results published in patent US20140234872.

Columns and labels:
[1] = test system: His-GIV-CT (aa 1660-1870), wild-type, phosphorylated in vitro by recombinant EGFR kinase
[2] = test system: His-GIV-CT Y1798F, phosphorylated in vitro by recombinant EGFR kinase
[3] = test system: His-GIV-CT Y1764F, phosphorylated in vitro by recombinant EGFR kinase
His-GIV-CT Y1764F, phosphorylated in vitro by recombinant EGFR kinase, sequence (chain, as listed by the source Y1764F): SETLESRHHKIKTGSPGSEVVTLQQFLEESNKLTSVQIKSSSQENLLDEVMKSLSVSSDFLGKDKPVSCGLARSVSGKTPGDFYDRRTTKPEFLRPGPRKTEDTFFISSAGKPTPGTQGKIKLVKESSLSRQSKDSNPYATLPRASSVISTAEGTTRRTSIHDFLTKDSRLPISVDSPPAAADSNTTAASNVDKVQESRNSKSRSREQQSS

His-GIV-CT (aa 1660-1870), wild-type, phosphorylated in vitro by recombinant EGFR kinase, sequence (chain, as listed by the source): as the sequence (chain, as listed by the source Y1764F) above, with F105Y counted along it
His-GIV-CT Y1798F, phosphorylated in vitro by recombinant EGFR kinase, sequence (chain, as listed by the source Y1798F): as the sequence (chain, as listed by the source Y1764F) above, with F105Y, Y139F counted along it

| Substance | in vitro phosphatase assay: residual tyrosine phosphorylation of His-GIV-CT [1] | in vitro phosphatase assay: residual tyrosine phosphorylation of His-GIV-CT mutants [2] | in vitro phosphatase assay: residual tyrosine phosphorylation of His-GIV-CT mutants [3] |
| --- | --- | --- | --- |
| His-SHP-1 (human, recombinant) | SHP-1 efficiently dephosphorylated GIV in a dose-dependent manner | SHP-1 efficiently dephosphorylated both mutants | SHP-1 efficiently dephosphorylated both mutants |
| GST-SHP-1 C453S (catalytically inactive) | SHP-1 WT, but not SHP-1 CS dephosphorylated tyrosine-phosphorylated His-GIV-CT in a dose-dependent manner | – | – |
| GST-SHP-1 (full length, wild-type, human) | SHP-1 WT, but not SHP-1 CS dephosphorylated tyrosine-phosphorylated His-GIV-CT in a dose-dependent manner | – | – |
